In PMC6333426 one finds percent of target cells bound data, which are given here for 1 substance.

The test has as its target Tsx nucleoside transporter of E. coli, on target cells (E. coli) (UniProt P0A927). The test can be described thus: flow cytometry on cells. For orientation: A flow cytometer gives signals particle by particle.
Chain of UniProt P0A927 (P0A927 23-294): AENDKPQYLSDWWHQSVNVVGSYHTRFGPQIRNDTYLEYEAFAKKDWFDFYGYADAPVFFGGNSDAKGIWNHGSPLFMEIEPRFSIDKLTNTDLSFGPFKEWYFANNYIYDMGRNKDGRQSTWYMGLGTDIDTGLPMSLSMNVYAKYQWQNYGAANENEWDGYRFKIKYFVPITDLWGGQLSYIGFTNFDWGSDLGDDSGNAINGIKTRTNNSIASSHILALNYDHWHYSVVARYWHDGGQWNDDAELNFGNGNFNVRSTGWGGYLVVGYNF

As to “CdiA^STECO31 (CdiA from Escherichia coli STEC_O31), wild type, A0A1S4NYE3 33-3253”, the percent of target cells bound was found to be 80%.
